Assay results as given in publication PMC4699637, “Papillomavirus-Associated Tumor Formation Critically Depends on c-Fos Expression Induced by Viral Protein E2 and Bromodomain Protein Brd4”.

Legend:
c-Jun [1] = target: T1, c-Jun (UniProt P05412 1-331); assay: EMSA; homodimer; details: protein: recombinant; chain copies: 2; label: 32P; blunt
c-Jun [2] = target: T1, c-Jun; assay: competition; homodimer; 100-fold excess unlabeled vs N1; details: protein: recombinant; chain copies: 2; blunt

T1 sequence (P05412 whole entry): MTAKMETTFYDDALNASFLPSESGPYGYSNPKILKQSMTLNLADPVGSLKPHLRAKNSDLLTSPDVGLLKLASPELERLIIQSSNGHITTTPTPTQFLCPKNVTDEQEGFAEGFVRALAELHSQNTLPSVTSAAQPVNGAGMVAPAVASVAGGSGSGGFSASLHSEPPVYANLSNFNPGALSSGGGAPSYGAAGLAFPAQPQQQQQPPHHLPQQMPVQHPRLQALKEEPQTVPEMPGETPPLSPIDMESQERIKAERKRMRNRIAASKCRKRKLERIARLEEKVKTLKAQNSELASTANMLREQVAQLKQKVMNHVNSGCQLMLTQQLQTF

Row | Binder | binding result (c-Jun [1]) | binding result (c-Jun [2])
1 | dAP CRPV URR WT (dsDNA) DNA 1: GCATGCGATGACACATTACAC DNA 2: GTGTAATGTGTCATCGCATGC | binds | –
2 | dAP CRPV URR mut (mdAP) (dsDNA) DNA 1: GCATGCGACATATGTTACAC DNA 2: GTGTAACATATGTCGCATGC | – | no binding
